The source of these data is the supplement of paper PMC9170038.

The data set relates to MS2 coat protein. The data set is described as follows: apparent KD of MS2 coat protein; designed switch direction (-1 OFF switch, 1 ON switch): 1; higher = weaker reporter binding. In a few lines:
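Apparent KD, taken as the median over clusters for each design, was obtained by curve-fitting normalised cluster fluorescence. Designed RNA switches had been transcribed on Illumina chips by stalled E. coli RNA polymerase and titrated with SNAP-549-labelled MS2 coat protein, doubling from 0.7 or 1.5 nM to 3 µM.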

Setting [1] is: Eterna round: R95, input ligand: FMN 200 uM.
[2] abbreviates: Eterna round: R95, input ligand: microRNA oligo, concentration not stated.
Where [3] appears, read: Eterna round: R95, input ligand: none.
[4] abbreviates: input ligand: microRNA oligo, concentration not stated.

Regarding “CGUCCGGCCUGUGCUGGCCGGAAGCAUGUACAUGAGGAUCACCCAUGUUCUUGUGCAGGCUUUUUGCUCGUCUUGUG [salish99_mir208a_010] (puzzle: Sensor for hsa-mir-208a)”, the “apparent KD of MS2 coat protein” value under setting [1] stood at 24.9 nM, the “apparent KD of MS2 coat protein” value under setting [2] is 14.7 nM and the “apparent KD of MS2 coat protein” value under setting [3] turned out to be 22.2 nM.
Turning to “CGACGCACGGCAGGAUAUCGAUUCCAAAGGAAUCGAGAAGGGCCUCAUGUCGUGGAAACGUGACAUGAGGAUCACCCAUGUUGC [Omei SS(NG)1 Cv19] (Eterna round: R96, puzzle: Same State NG 1)”, the “apparent KD of MS2 coat protein” value (input ligand: FMN 200 uM) worked out at 115 nM, the “apparent KD of MS2 coat protein” value under setting [4] was determined as 9.29 nM and the “apparent KD of MS2 coat protein” value (input ligand: none) came to 27.9 nM.
Turning to “UUCUCAUUUACAUGAGGAUCACCCAUGUUUUUUUGUCGGAAAUAGGAUAUAGGUCUCUCGUUUUACUAGAAGGAUUUCCUUAUU [JR_SSNG3_Sub089] (Eterna round: R96, puzzle: Same State NG 3)”, the “apparent KD of MS2 coat protein” value reads like this: (input ligand: FMN 200 uM) 70.4 nM; under setting [4], 70.7 nM; (input ligand: none) 58.9 nM.
Turning to “AGGACGAGCACAGGAUAUCCGCGGAACAGCCGCGGAGAAGGGUGAAGUCAUGGAAAGAAAAGACAUGAGGAUCACCCAUGUAAA [Ageteerer] (Eterna round: R96, puzzle: Same State NG 1)”, the “apparent KD of MS2 coat protein” value (input ligand: FMN 200 uM) was determined as 223 nM, the “apparent KD of MS2 coat protein” value under setting [4] was found to be 1320 nM and the “apparent KD of MS2 coat protein” value (input ligand: none) is 680 nM.
Regarding “GGCAAUAUCACAGGAUAUUGGAAAGGAAGUGUACAAGAAGGGUGAUAGUGCCUCAGCAACAUGAGGAUCACCCAUGUACUGAGC [PowerStrip SSNG 1.29] (Eterna round: R96, puzzle: Same State NG 1)”, the “apparent KD of MS2 coat protein” value by setting is: (input ligand: FMN 200 uM) 121 nM; under setting [4], 43.6 nM; (input ligand: none) 113 nM.
Take “AGAGCCGGCACUGAGGAUAUUCAUAAUAAAACAUGAGGAUCACCCAUGUAGGCCAGAAGGCCUUGGGAGAAGGCAGGUCGGCUCG [Mat - Same State 2 - Mod of UCT - D68] (puzzle: Same State 2)”: the “apparent KD of MS2 coat protein” value under setting [1] was 17.3 nM, the “apparent KD of MS2 coat protein” value under setting [2] was 122 nM and the “apparent KD of MS2 coat protein” value under setting [3] is 200 nM.
For the sequence “GUGGCCUAGGCACAGGAUAUGUUUCUCGUAACAUGAGGAUCACCCAUGUGCCUUUGAGAUUUUAUGCAGAAGGGUGCACGCCACG [JL Atiinbe mod 04] (Eterna round: R96, puzzle: Same State 2)”, the “apparent KD of MS2 coat protein” value (input ligand: FMN 200 uM) was found to be 21.1 nM, the “apparent KD of MS2 coat protein” value under setting [4] stood at 214 nM and the “apparent KD of MS2 coat protein” value (input ligand: none) amounted to 425 nM.
Take “GGCUAGGAUAUCUGCAGGAUCACCGCGGAGAAGGAGCUAAGCUAGGAUAUCCGCAGGAUCACCGCGGAGAAGGAGCAUAAUAUA [pwkr ssNG3 DX 2xF5 +2xFMN.15] (Eterna round: R96, puzzle: Same State NG 3)”: the “apparent KD of MS2 coat protein” value (input ligand: FMN 200 uM) is 81.5 nM, the “apparent KD of MS2 coat protein” value under setting [4] amounted to 20.3 nM and the “apparent KD of MS2 coat protein” value (input ligand: none) is 18.1 nM.
On the same counts, the results for “GGUGCCAAAUAAGCCUACAUGAGGAUCACCCAUGUAUGUAGGCAGGAUAUCGUUUGCAAAGCAAACGAGAAGGGCUGAGGCACC [Mat - Same State NG 3 - JL Mod - D53] (Eterna round: R96, puzzle: Same State NG 3)” are 26.1 nM, 42.7 nM and 81 nM.
For the sequence “GUGGCCUAGGCACAGGAUAUGUUUCUCGUAACAUGAGGAUCACCCAUGUGCCUUUGAGAUUUUAUGCAGAAGGGUGCACGCCACG [JL Atiinbe mod 04] (puzzle: Same State 2)”, the “apparent KD of MS2 coat protein” value under setting [1] was found to be 20.6 nM, the “apparent KD of MS2 coat protein” value under setting [2] was determined as 273 nM and the “apparent KD of MS2 coat protein” value under setting [3] came to 491 nM.
Take “GGUACUAUCACAGGAUAUGCUAUCCUUUGGGUAGCAGAAGGGUGGUACAUGAGGAUCACCCAUGUGGUGCCAGGGCGUGAGCCC [JL SSNG1 1.97] (Eterna round: R96, puzzle: Same State NG 1)”: the “apparent KD of MS2 coat protein” value worked out at 200 nM (input ligand: FMN 200 uM), 67.9 nM under setting [4] and 318 nM (input ligand: none).
As for “ACGCCCUCAGUAGGAUAUGGGAAAGGAAGUGUACCAGAAGGACUGGUUGAACAUGAGGAUCACCCAUGUUCAACGACAGGGCGA [PowerStrip SSNG 1.25] (Eterna round: R96, puzzle: Same State NG 1)”, the “apparent KD of MS2 coat protein” value reads like this: (input ligand: FMN 200 uM) 18.9 nM; under setting [4], 14 nM; (input ligand: none) 22.8 nM.
Turning to “AUAAAACAUGAGGAUCACCCAUGUCAACAAAGUCGAGGAUAUGUGCAAAUAAAAUAAGAACCAGAAGGCGAAUAAU [salish99_ss1_r3_049] (puzzle: Same State 1)”, the “apparent KD of MS2 coat protein” value is, setting by setting: under setting [1], 16.2 nM; under setting [2], 22.3 nM; under setting [3], 37.9 nM.
With “ACUCUCACAGUAGGAUAUGUAGGAUAUGCCUACAUGAGGAUCACCCAUGUAAACAUGGCAGAAGGAUAGAAGGACUUACAUUGG [pwkr ssNG2 2FMN + 1F5.1] (Eterna round: R96, puzzle: Same State NG 2)”, the “apparent KD of MS2 coat protein” value reads like this: (input ligand: FMN 200 uM) 495 nM; under setting [4], 577 nM; (input ligand: none) 762 nM.
For “AUUAUUUAUGCAGGAUAUGAUUAACAUGAGGAUCACCCAUGUGGUGUUGUGAGUAAGGAGAGUGAUCAGAAGGGCAUUUUUUUC [JMF's solution 59] (Eterna round: R96, puzzle: Same State NG 2)” the same measures were 381 nM, 214 nM and 397 nM.
For “ACAUGAGGAUCACCCAUGUAACACCUGAAAAUAAAACGAACACAGGAUAUCCCGACAUGACGUUGGGAGAAGGGUGAUCGAAGA [Leenrien] (Eterna round: R96, puzzle: Same State NG 3)”, the “apparent KD of MS2 coat protein” value (input ligand: FMN 200 uM) was found to be 269 nM, the “apparent KD of MS2 coat protein” value under setting [4] came to 202 nM and the “apparent KD of MS2 coat protein” value (input ligand: none) turned out to be 29.6 nM.
Regarding “CUGAGCGAUUAAGGAUAUCACGUCGUUUAGACGUGAGAAGGUGAUCAUAACAUGAGGAUCACCCAUGUAUUACAUGAAGCUCAG [SSNG1/3-A3] (Eterna round: R96, puzzle: Same State NG 1)”, the “apparent KD of MS2 coat protein” value was found to be 614 nM (input ligand: FMN 200 uM), 98.1 nM under setting [4] and 128 nM (input ligand: none).
As for “GUGGUCAGACAUGAGGAUCACCCAUGUGGAAUAAAUAAGGUUUAGGAUAUGGAAUAUAGGAUAUACCAGAAGGGAGGGUUGGUG (Eterna round: R96, puzzle: Same State NG 3)”, under setting [4], the “apparent KD of MS2 coat protein” value was determined as 90.4 nM.
Consider “CCGCGCUGUCGAGAGGAUAUGCGGUGAUGGACAUGAGGAUCACCCAUGUUAGCGAUAGCAUUACUGUAGAAGGCUCUACGGCGGC [JL-ss2-3.09 ViennaUCT mod] (puzzle: Same State 2)”, for which the “apparent KD of MS2 coat protein” value runs as follows: under setting [1], 12.2 nM; under setting [2], 10.4 nM; under setting [3], 11.9 nM.
Take “AUAAAACAUGAGGAUCACCCAUGUCAACAAAGUCGAGGAUAUGGGCAAAUAAAAUAAGAACCAGAAGGCGAAUAUU [salish99_ss1_r3_037] (puzzle: Same State 1)”: the “apparent KD of MS2 coat protein” value under setting [1] stood at 31 nM, the “apparent KD of MS2 coat protein” value under setting [2] was 382 nM and the “apparent KD of MS2 coat protein” value under setting [3] came to 750 nM.
As for “AUAAAACAUGAGGAUCACCCAUGUCAACAAAGUCGAGGAUAUGGGCUAAUAAAAUAAGAACCAGAAGGCGAAUAAU [salish99_ss1_r3_027] (puzzle: Same State 1)”, the “apparent KD of MS2 coat protein” value came out at 26.2 nM under setting [1], 152 nM under setting [2] and 146 nM under setting [3].
As to “UGGAUCUAGGCUUGCCUGGGUCCAUGCUGACAUGAGGAUCACCCAUGUGCAUUCUAUAAGCUUUUUGCUUGUCAGCU (puzzle: Sensor for hsa-mir-208a)”, the “apparent KD of MS2 coat protein” value is, setting by setting: under setting [1], 373 nM; under setting [2], 91 nM; under setting [3], 441 nM.
Consider “GCUGGAACUCACAUGAGGAUCACCCAUGUUCCGGAAACGGCACAGGAUAUCUGUCCGAAAAGGUCAGAGAAGGGUGUAACCAGC [Fiskers NG3ss - 87] (Eterna round: R96, puzzle: Same State NG 3)”, for which the “apparent KD of MS2 coat protein” value is 137 nM (input ligand: FMN 200 uM), 51 nM under setting [4] and 88.8 nM (input ligand: none).
“GGUCCAGCCUGAGCUGGACAAAAGCAUGUACAUGAGGAUCACCCAUGUUCAUGUACAAGCUUUUUGCUCGUCUUAUA [salish99_208a_r3_045] (puzzle: Sensor for hsa-mir-208a)”: the “apparent KD of MS2 coat protein” value is, setting by setting: under setting [1], 542 nM; under setting [2], 15.4 nM; under setting [3], 696 nM.
In the case of “UUAAUCUGAACAUGAGGAUCACCCAUGUAUCUUACCUUAGGACAGGAUAUAGAUGUUAAGAAUUACUAGAAGGGUCAGUAUAUU [JR_SSNG3_Sub012] (Eterna round: R96, puzzle: Same State NG 3)”, the “apparent KD of MS2 coat protein” value under setting [4] is 33.1 nM.
For “GGUGAGAGAGUCAAGGAUAUUAAAGGAGAGACAUGAGGAUCACCCAUGUAAGAGAGAGAGGAGAGUGAGAAGGUGAAGAGAGUGG [Altered State 2-25 - Jieux - Same State 2] (puzzle: Same State 2)”, the “apparent KD of MS2 coat protein” value is, setting by setting: under setting [1], 30.4 nM; under setting [2], 25 nM; under setting [3], 60.6 nM.
As to “GUGUGUUGCGGGCAGGAUAUGUACUUGAGUACAUGAGGAUCACCCAUGUGCGGGUGUUUCACCCGACAGAAGGGCCUAUCGCGAC [JL-ss2-3.25 ViennaUCT mod] (puzzle: Same State 2)”, the “apparent KD of MS2 coat protein” value under setting [1] came out at 145 nM, the “apparent KD of MS2 coat protein” value under setting [2] was 136 nM and the “apparent KD of MS2 coat protein” value under setting [3] was 664 nM.
